Experimental data published in publication PMC9671094.

Columns and labels:
[1] = target: ApexGT2.2MUT trimer (HIV-1 isolate BG505); assay: cryo-EM structure
PCT64.iGL (human) = assay: SPR; IgG captured as ligand by anti-human IgG (Human Antibody Capture Kit) on a GLC chip, ProteOn XPR36; trimer as analyte; 1x HBS-EP+ pH 7.4 with 1 mg/ml BSA; 1:1 binding model; highest SOSIP concentration 5 uM or 10 uM
PG16 (human) = assay: as above
[2] = target: PG16.HCDR3 + 1MUT (human); assay: as above
PG16.VHVL (human) = assay: as above
PG16.iGL (human) = assay: as above
PG9 (human) = assay: as above
PG9.HCDR3.1MUT (human) = assay: as above
PG9.VHVL (human) = assay: as above
PG9.iGL.1MUT (human) = assay: as above

Row | Substance | stoichiometry N (Fab per trimer) [1] | Kd (PCT64.iGL (human)) | Kd (PG16 (human)) | Kd [2] | Kd (PG16.VHVL (human)) | Kd (PG16.iGL (human)) | Kd (PG9 (human)) | Kd (PG9.HCDR3.1MUT (human)) | Kd (PG9.VHVL (human)) | Kd (PG9.iGL.1MUT (human))
1 | PCT64 LMCA Fab | 1 |  |  |  |  |  |  |  |  | 
2 | BG505 SOSIP.D664 (complex) |  | > 5000 nM | 38 nM | 273 nM | 1000 nM | > 5000 nM | 15.8 nM | 317 nM | 72 nM | 645 nM
